Results reported in patent US20070202045A1 (published 2007).
Read-outs that look alike come from different tables or passages of the source. Bridges are numbered along the chain shown (N, C = ends). Where no end group is shown, it is not given here.

What was measured:
mouse albumin [1] = molecular target: T1, mouse albumin (mouse, UniProt P07724 25-608); experiment: SA08b competition ELISA
T1 construct: bought (Sigma); also called MSA; MuSA

rabbit albumin [2] = molecular target: T2, rabbit albumin (rabbit, UniProt P49065 25-608); experiment: SA08b competition ELISA
T2 construct: bought (Sigma); also called rabbit SA; BuSA
T2 sequence (P49065 25-608 limits assumed): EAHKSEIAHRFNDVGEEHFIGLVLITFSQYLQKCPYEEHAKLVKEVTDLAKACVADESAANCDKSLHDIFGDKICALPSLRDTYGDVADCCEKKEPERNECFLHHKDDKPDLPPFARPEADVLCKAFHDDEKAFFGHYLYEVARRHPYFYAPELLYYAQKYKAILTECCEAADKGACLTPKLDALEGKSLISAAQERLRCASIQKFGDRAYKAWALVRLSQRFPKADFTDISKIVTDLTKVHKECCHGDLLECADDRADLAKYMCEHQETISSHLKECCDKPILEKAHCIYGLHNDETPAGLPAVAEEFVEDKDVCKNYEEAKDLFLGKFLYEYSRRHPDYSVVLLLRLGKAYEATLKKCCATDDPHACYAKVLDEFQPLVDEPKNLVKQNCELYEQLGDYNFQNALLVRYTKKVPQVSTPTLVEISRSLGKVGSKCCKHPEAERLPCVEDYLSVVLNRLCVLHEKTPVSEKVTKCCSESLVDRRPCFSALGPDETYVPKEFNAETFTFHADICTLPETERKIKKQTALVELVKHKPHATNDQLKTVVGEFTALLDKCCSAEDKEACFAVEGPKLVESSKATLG

rat albumin [3] = molecular target: T3, rat albumin (rat, UniProt P02770 25-608); experiment: SA08b competition ELISA
T3 construct: bought (Sigma); also called rat SA; RSA
T3 sequence (P02770 25-608 limits assumed): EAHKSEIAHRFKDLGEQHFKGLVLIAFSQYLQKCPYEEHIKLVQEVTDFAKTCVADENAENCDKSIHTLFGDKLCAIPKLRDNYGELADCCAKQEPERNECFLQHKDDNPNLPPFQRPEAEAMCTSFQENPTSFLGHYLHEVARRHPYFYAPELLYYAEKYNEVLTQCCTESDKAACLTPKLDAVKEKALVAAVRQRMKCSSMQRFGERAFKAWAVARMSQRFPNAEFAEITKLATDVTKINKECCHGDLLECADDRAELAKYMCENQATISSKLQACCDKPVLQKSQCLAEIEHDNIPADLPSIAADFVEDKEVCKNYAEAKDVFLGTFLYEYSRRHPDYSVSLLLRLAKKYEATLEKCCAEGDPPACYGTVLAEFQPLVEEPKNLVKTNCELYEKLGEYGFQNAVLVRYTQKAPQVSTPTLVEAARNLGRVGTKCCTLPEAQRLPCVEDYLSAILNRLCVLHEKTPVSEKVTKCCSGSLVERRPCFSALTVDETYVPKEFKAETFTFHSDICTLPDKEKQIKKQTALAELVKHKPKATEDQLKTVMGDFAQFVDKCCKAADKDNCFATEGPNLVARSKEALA

rabbit albumin [4] = molecular target: T2, rabbit albumin; experiment: SA08b competition ELISA; remark: listed apart in the source
rat albumin [5] = molecular target: T3, rat albumin; experiment: phage ELISA
mouse albumin [6] = molecular target: T1, mouse albumin; experiment: SA08b peptide competition ELISA
rabbit albumin [7] = molecular target: T2, rabbit albumin; experiment: SA08b peptide competition ELISA
mouse albumin [8] = molecular target: T1, mouse albumin; experiment: SA08b competition ELISA; remark: listed apart in the source
rabbit albumin [9] = molecular target: T2, rabbit albumin; experiment: SA08b competition ELISA; remark: listed apart in the source
rat albumin [10] = molecular target: T3, rat albumin; experiment: SA08b competition ELISA; remark: listed apart in the source
rabbit albumin [11] = molecular target: T2, rabbit albumin; experiment: SPR (BIAcore), albumin immobilized
Text: (§1) Binding affinities between SA peptides and album were obtained using a BIAcore 3000 (BIAcore, Inc., Piscataway, N.J.). Albumin was captured in a CM5 chip using amine coupling at approximately 5000 resonance units (RU).
(§2) The signal from an injection passing over an uncoupled cell was subtracted from that of an immobilized cell to generate sensongrams corresponding to the amount of peptide bound as a function of time. The running buffer, PBS containing 0.05% TWEEN-20T, was used for all sample dilutions. BIAcore kinetic evaluation software (v 3.1) was used to determine the dissociation constant (Kd) from the association and dissociation rates, using a one to one binding model.

rat albumin [12] = molecular target: T3, rat albumin; experiment: SPR (BIAcore), albumin immobilized
Text: as §1, §2

rabbit albumin [13] = molecular target: T2, rabbit albumin; experiment: SA08b competition ELISA; remark: listed apart in the source
human albumin = molecular target: T4, human albumin (human, UniProt P02768 25-609); experiment: SPR (BIAcore), albumin immobilized
T4 construct: bought (Sigma); also called human SA; HuSA
Text: as §1, §2

T1 sequence (P07724 25-608 limits assumed): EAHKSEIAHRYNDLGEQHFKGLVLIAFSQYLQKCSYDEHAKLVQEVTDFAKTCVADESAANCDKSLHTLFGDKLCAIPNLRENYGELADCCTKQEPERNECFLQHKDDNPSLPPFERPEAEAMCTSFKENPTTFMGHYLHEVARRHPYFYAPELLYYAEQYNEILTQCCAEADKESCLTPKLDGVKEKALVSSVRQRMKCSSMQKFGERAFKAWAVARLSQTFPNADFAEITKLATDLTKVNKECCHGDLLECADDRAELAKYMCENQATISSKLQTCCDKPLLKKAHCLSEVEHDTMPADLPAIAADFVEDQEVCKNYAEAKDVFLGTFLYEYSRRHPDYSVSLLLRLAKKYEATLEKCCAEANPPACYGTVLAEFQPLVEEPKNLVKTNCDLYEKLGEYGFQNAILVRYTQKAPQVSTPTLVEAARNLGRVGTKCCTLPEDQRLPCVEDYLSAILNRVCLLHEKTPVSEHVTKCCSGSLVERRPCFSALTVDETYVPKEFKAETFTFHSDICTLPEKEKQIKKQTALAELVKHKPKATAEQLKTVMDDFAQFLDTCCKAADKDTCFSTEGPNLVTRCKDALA

Binder | IC50 (mouse albumin [1]) | IC50 (rabbit albumin [2]) | IC50 (rat albumin [3]) | IC50 (rabbit albumin [4]) | further results
Ac-MEDICLPRWGCLWED-NH2 (disulfide 5-11 (inferred), synthetic; disulfide oxidised) [SA12] | 13 nM | 1760 nM | 205 nM | – | –
Ac-RLIEDICLPRWGCLWE-NH2 (disulfide 7-13 (inferred), synthetic) [SA29] | – | – | – | 400 nM | –
DLCLRDWGCLW (not fully specified (C-terminus); cysteine pairing not given here) [RC] | – | – | – | – | binding result (rat albumin [5]): binds
QGLIGDICLPRWGCLWGDSV-NH2 (disulfide 8-14 (inferred), synthetic; disulfide oxidised; printed ...GDSV here) [SA07] | 6 nM | 30 nM | 35 nM | – | –
Ac-QRLIEDICLPRWGCLWEDDF-NH2 (disulfide 8-14 (inferred), synthetic) [SA20] | – | – | – | 260 nM | –
QRLMEDICLPRWGCLWEDDF-NH2 (disulfide 8-14, synthetic; disulfide oxidised) [SA06] | 8 nM | 128 nM | 68 nM | – | IC50 (mouse albumin [6]): 6 nM; IC50 (rabbit albumin [7]): 130 nM; IC50 (mouse albumin [8]): 8 nM; IC50 (rabbit albumin [9]): 128 nM; IC50 (rat albumin [10]): 68 nM; Kd (rabbit albumin [11]): 143 nM; Kd (rat albumin [12]): 229 nM
Ac-RLMEDICLPRWGCLWEDD-NH2 (disulfide 7-13 (inferred), synthetic; disulfide oxidised) [SA10] | – | 86 nM | 77 nM | – | –
Ac-RLIEDICLPRWGCLWEDD-NH2 (disulfide 7-13 (inferred), synthetic; disulfide oxidised) [SA21] | – | – | – | 270 nM | IC50 (mouse albumin [6]): 7 nM; IC50 (rabbit albumin [7]): 270 nM; Kd (rabbit albumin [11]): 320 nM
Ac-RLMEDICLARWGCLWEDD-NH2 (disulfide 7-13 (inferred), synthetic; disulfide oxidised) [SA13] | 188 nM | 3200 nM | 2480 nM | – | –
DICLPRWGCL-NH2 (disulfide 3-9 (inferred), synthetic) [SA19] | – | – | – | 24500 nM | –
Ac-ICLPRWGCLWED-NH2 (disulfide 2-8 (inferred), synthetic) [SA27] | – | – | – | 86700 nM | –
MEDICLPRWGCLWED-NH2 (disulfide 5-11 (inferred), synthetic; disulfide oxidised) [SA05] | 6 nM | 804 nM | 161 nM | – | –
Ac-IEDICLPRWGCLWED-NH2 (disulfide 5-11 (inferred), synthetic) [SA24] | – | – | – | 1380 nM | –
Ac-DICLPRWGCL-NH2 (disulfide 3-9 (inferred), synthetic) [SA34] | – | – | – | 28200 nM | –
Ac-RLIEDICLPRWGCL-NH2 (disulfide 7-13 (inferred), synthetic) [SA33] | – | – | – | 4310 nM | fold improvement of IC50 over the core sequence (SA34 and SA19) (rabbit albumin [13]): ~6 fold
Ac-DICLPRWGCLWED-NH2 (disulfide 3-9 (inferred), synthetic) [SA26] | – | – | – | 3120 nM | fold improvement of IC50 over the core sequence (SA34 and SA19) (rabbit albumin [13]): ~8.6 fold
Ac-EDICLPRWGCLW-NH2 (disulfide 4-10 (inferred), synthetic) [SA32] | – | – | – | 2170 nM | –
Ac-RLIEDICLPRWGCLW-NH2 (disulfide 7-13 (inferred), synthetic) [SA31] | – | – | – | 200 nM | –
Ac-EDICLPRWGCLWEDD-NH2 (disulfide 4-10 (inferred), synthetic; disulfide oxidised) [SA09] | 6 nM | 1690 nM | 258 nM | – | –
Ac-IEDICLPRWGCLWE-NH2 (disulfide 5-11 (inferred), synthetic) [SA30] | – | – | – | 1800 nM | –
Ac-RLIEDICLPRWGCLWED-NH2 (disulfide 7-13 (inferred), synthetic) [SA22] | – | – | – | 430 nM | fold improvement of IC50 over the core sequence (SA34 and SA19) (rabbit albumin [13]): 60 fold
GEWWEDICLPRWGCLWEEED-NH2 (disulfide 8-14 (inferred), synthetic) [SA15] | – | – | – | – | IC50 (mouse albumin [6]): 5 nM; IC50 (rabbit albumin [7]): 13 nM; Kd (rabbit albumin [11]): 65 nM; Kd (human albumin): 878 nM; Kd (rat albumin [12]): 150 nM
Ac-EDICLPRWGCLWED-NH2 (disulfide 4-10 (inferred), synthetic) [SA25] | – | – | – | 2730 nM | –
Ac-LIEDICLPRWGCLWED-NH2 (disulfide 6-12 (inferred), synthetic) [SA23] | – | – | – | 360 nM | –
ICLPRWGCLW-NH2 (disulfide 2-8 (inferred), synthetic) [SA18] | – | – | – | 125000 nM | –
Ac-QGLIGDICLPRWGCLWGDSVK-NH2 (disulfide 8-14 (inferred), synthetic; disulfide oxidised) [SA08] | 10 nM | 63 nM | 68 nM | – | IC50 (mouse albumin [6]): 12 nM; Kd (rabbit albumin [11]): 108 nM; Kd (human albumin): 858 nM; Kd (rat albumin [12]): 158 nM
DICLPRWGCLW-NH2 (disulfide 3-9 (inferred), synthetic; disulfide oxidised) [SA04] | 40 nM | 8540 nM | 787 nM | 8540 nM | –
Ac-MEDICLPRWGCLWEDD-NH2 (disulfide 5-11 (inferred), synthetic; disulfide oxidised) [SA11] | 17 nM | 1210 nM | 232 nM | – | –
